In patent publication US20090017017A1 (SYMPHOGEN A S, published 2009):
Residue numbers refer to the chain shown, from its start.

B1: RhD240.125A09 (Fab, V domains shown)
VH: QLQLQESGPGLVKPSGTLSLTCAVSGGSMRSSNWWTWVRQPPGKGLEWIGEIHHGGSTNYNPSLQSRVTISVDKSKNRFSLKLSSVTAADTAVYHCARGRSYYDSSGHSFRGLVPFDIWGQGTMVTVSS
VL: DIQMTQSPSTLSASVGDRVTITCRASQSISSWLAWYQQKPGKAPKLLVYKTSSLEGGVPSRFSGSGSGTEFSLTIFRLQSDDFATYYCQQYNSFPYTFGQGTKLEFTR
notes: Tested as Fab in E. coli periplasmic extract (VH on human gamma 1 CH1, vector Em351)
B2: RhD159.119B09 (Fab, V domains shown)
VH: EVQLVETGGGLVQPGGSLRLSCAASGFSFRSYDMNWVRQAPGKGLEWVSYISGRGSTTYYADSVKGRFTISRDNAKNSLYLQMNSLRAEDTAVYYCARDLYGDYDPKSYYYYAMDVWGHGTTVTVSS
VL: EIVMTQSPGTLSLSPGERATLSCRASHTVSSGYLAWYQQKPGQAPRLLIYGASNRATGVPDRFGGSGSGTDFTLTISRLEPEDSAVYFCQQYGTSPGVTFGQGTRLEIER
notes: as for B1
B3: RhD244.158B10 (Fab, V domains shown)
VH: QVQLVESGGGVVQPGRSLRLSCAASGFSFSSYGMHWVRQAPGKGLEWVAIIWYDGSNKLYADSVKGRFTISRDNSRNTLYLQMSSVRAEDTAVYYCARDSVRGVSRWGTQKYYAMDVWGQGTTVTVSS
VL: DIQMTQSPSSLSASVGDRVIITCRASQSVNRYLNWYQQKPGKAPKLLIYAASSLQGGVPSRFSGSGSGTDFTLTISSLQREDFATYYCQQSYRTRTFGQGTKVEIKR
notes: as for B1
B4: RhD239.126F09 (Fab, V domains shown)
VH: QVQLVESGGGVVQPGTSLRLSCAASGFTFRTYGMHWVRQAPGKGLEWVAYIWYDGSNKYYADSVKGRFTISRDNSKSTLNLQMNSLRAEDTAVYYCAREIASRGYSRYLYYFDSWGQGTLVTVSS
VL: DIQLTQSPSSLSASVGDRVTITCRASQSISSYLNWYQQKPGKAPKLLISAASSLQSGVPSRFSGSGSGTDFTLTISSLQREDYATYYCQQSYSTPPYTFGQGTKLEIKR
notes: as for B1
B5: RhD292.109A02 (Fab, V domains shown)
VH: QVQLVETGGGVVQPGRSLRLSCAASGFTFSSYGMHWVRQAPGKGLEWVAVIWSDGSNKYYADSVKGRFTISRDNSRNTLYLQMNSLRAEDTAVFYCAREQGGYSSSWYRRYYYYYMDVWGQGTTVTVSS
VL: B4 VL with L4M, Y32W, K45N, S49F, S53T, R80P, Y83F, T94S, P95S, P96V
notes: as for B1
B6: RhD245.164E06 (Fab, V domains shown)
VH: EVQLVQSGGGVVQPGRSPRLSCAASGFTFSSYGMHWVRQAPGKGLEWVAFIWYDGSNKYYADSVKGRFTISRDNSKNTLYLQMNSLRAEDTAVYYCARDLRNHVFWSGYSTSFDYWGQGTLVTVSS
VL: DIQMTQSPSSLSASVGDGITITCRASQSVRSYLNWYQQKPGKAPELLIYAASRLQSGVPSRFSGSGSGTDFTLTISSLQPEDFATYYCQHSYSTPVTFGQGTKVEVKR
notes: as for B1
B7: RhD205.160B12 (Fab, V domains shown)
VH: EVQLVETGGGLVKPGGSLRLSCAASGFTFRSYSMNWVRQAPGKGLEWVSSIGSSSTYTYSADSVKGRFTISRDNAKNSLYLQMNSLRAEDTAVYYCARGEPLNYDYIWGGYRFTIHWGQGTLVTVSS
VL: DIQLTQSPSFLSASVGDRVTITCRASHGISSYLAWYQQKPGKAPNLLIFPASTLQSGVPSRFSGSGSGTEFTLTISSLRPEDFATYYCQQLNSYSRWAFGQGTKVEVKR
notes: as for B1
B8: RhD158.119B06 (Fab, V domains shown)
VH: EVQLVETGGGVVQPGRSLRLSCAASGFSFSNFGFHWIRQSPGKGLEWVAVIWYDGSNRFYADSVKGRFTISRDSSKNMLFLQMDSLRAEDTAVYYCAREISMKVVIRRHYVMDVWGHGTTVTVSS
VL: DIQMTQSPSPLSASVGDRVSITCRASRGISNSLAWYQQKPGKVPKLLIYAASTLQSGVPSRFSGGGSGTDFTLTISSLQPEDVATYYCHTYNSAPFAFGPGTKVDIKR
notes: as for B1
B9: RhD243.109A05 (Fab, V domains shown)
VH: QVQLVESGGGVVQPGRSLRLSCAASGFTFSTYGMHWVRQAPGKGLEWVAVIWYDGSQKYYVDSVKGRFTISRDNSKNTLYLQMNSLRAEDTAVYYCAREVAVRGVIRYYYGMDVWGQGTTVTVSS
VL: DIQLTQSPSSLAASVGDRVIITCRSGQGIRNYLNWYQQKPGKAPKLLIYAASFLQSGVPSRFSGSGSGTDFTLTISSLQPEDFATYNCQQSYSDPWTFGQGTKVEIKR
notes: as for B1
B10: RhD293.109A09 (Fab, V domains shown)
VH: B9 VH with Q1E, S30N, Q57N, V61A, G111A
VL: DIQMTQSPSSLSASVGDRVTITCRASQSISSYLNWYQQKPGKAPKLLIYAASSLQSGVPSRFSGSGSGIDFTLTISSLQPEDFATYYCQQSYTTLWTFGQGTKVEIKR
notes: as for B1
B11: RhD206.160C06 (Fab, V domains shown)
VH: QVQLVESGGGVVQPGRSLRLSCAASGFTFSSYGMHWVRQAPGKGLEWVAIIWFDGSNKYYADSVKGRFTISRDNSKNTLYLQINSLRAEDTAVYYCAKEHGYYSSSWYRNYYYYAMDVWGQGTTVTVSS
VL: DIQMTQSPSSLSASVGDRVTITCRASQSIRRYLNWYQKKPGKAPKLLIYAASSLQSGVPSRFSGSGSGTDFTLTISSLQPEDFATYYCQQSYRTQGLTFGGGTKVEIKR
notes: as for B1
B12: RhD204.128A03 (Fab, V domains shown)
VH: EVQLVESGGGVVQPGRSLRLSCAASGFSFSNYGMHWVRQAPGKGLEWVAVISYDGSEKYYADSVKGRFTISRDNSKKALYLQMNSLRAEDTAMYYCKNKVGATRRAVVAFDIWGQGTTVTVSS
VL: LSSELTQDPAVSVALGQTVRITCQGDSLRSYYANWYQQKPGQAPLSVIYGKNNRPSGIPDRFSGSNSGNTAFLTITGTQAEDEADYYCNSRDSSGNYRELFGGGTKLTVLG
notes: Tested as Fab in E. coli periplasmic extract (VH on human gamma 1 CH1, vector Em351); Lambda clone
B13: RhD294.119E10 (Fab, V domains shown)
VH: B12 VH with E1Q, A78T, F110V, T118M
VL: EIVLTQSPGTLSLSPRERATLSCRANQYVNSNHLAWYQQKPGQAPRLLLYGASRRATGIPDRFSGSGTGTDFTLIISRLEPEDFAVYFCQLYDHSRPMYTFGQGTKLEIKR
notes: as for B1
B14: RhD241.119B05 (Fab, V domains shown)
VH: QVQLQESGPGLVKPSETLSLICTVSGGSISSNYWSWIRQPPGKGLEWIGYIYYSGNTNYNPSLKSRVTISLDTSKNQFSLKLRSVTAADTAVYYCAREWRQYGSGIRGSRYYYGMDVWGQGTLVTVSS
VL: EIVLTQSPVTLSLSPGERATLSCRASQSVSSGYLAWYQQKPGQAPRLLIYGTSIRATGIPDRFSGSGSGTDFTLTISRLEPEDFAVYYCQQYGSSPLYSFGQGTKVDIKR
notes: as for B1
B15: RhD208.179B11 (Fab, V domains shown)
VH: EVQLVESGGGVVQPGRSLRLSCAASGFTFRTSAMHWVRQAPGKGLEWVAVIWYDGSNKYYADSVKGRFTISRDNSKNTLYLQMNSLRAEDTAVYYCAREMVSYSSSWYRRYYYYNMDVWGKGTTVTVSS
VL: QAVVTQEPSLTVSPGGTVTLTCASSTGSVTSGYYPNWFQQKPGQAPRPLISGTSNKLSWTPARFSGSLLGGKAALTVSGVQPEDEAVYYCLLYYGVPQPVVFGGGTKLTVLG
notes: as for B1
B16: RhD246.179B10 (Fab, V domains shown)
VH: B15 VH with S7T, R30S, T31S, S32Y, A33G
VL: LSSELTQDPAVSVTLGQTVRITCQGDSLRHSYASWYQQKPGQAPILVIYGKNIRPSGIPDRFSGSTSGNTASLTITGAQAEDGGDYYCNSRDTSTDHYVFGDGTRVTVVG
notes: as for B1
B17: RhD242.181A03 (Fab, V domains shown)
VH: B15 VH with R30S, T31N, S32H, A33G, V101A, N115V
VL: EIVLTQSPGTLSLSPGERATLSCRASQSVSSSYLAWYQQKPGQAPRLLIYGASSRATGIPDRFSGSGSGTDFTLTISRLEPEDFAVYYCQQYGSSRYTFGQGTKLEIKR
notes: as for B1
B18: RhD295.119B11 (Fab, V domains shown)
VH: QVQLVESGGGLVQPGGSLRLSCVGSGFTFRSFDMNWVRQAPGKGLEWISYINSRGNTRYYVDSVKGRFTISRDNAKNSLYLQMNSLRAEDTAVYYCARDLYGDYDPKSYYYYGMDVWGQGTMVTVSS
VL: EIVLTQSPGTLSLSPGERATLSCRASQSFSSGYLAWYQQKPGQAPRLLIYGASNRATGIPDRFSGSGSGTDFTLTISRLEPEDFAVYYCQHYGSSPPITFGQGTRLEIKR
notes: as for B1

biological target: T1, Rhesus D antigen (human, UniProt Q02161 2-417); assay: agglutination assay, Fab periplasmic extract on RhD(+)/RhD(-) RBC mix
T1 construct: whole, on cells; Presented on RhD(+) erythrocytes; also called RhD; RhD antigen
T1 sequence (looked up): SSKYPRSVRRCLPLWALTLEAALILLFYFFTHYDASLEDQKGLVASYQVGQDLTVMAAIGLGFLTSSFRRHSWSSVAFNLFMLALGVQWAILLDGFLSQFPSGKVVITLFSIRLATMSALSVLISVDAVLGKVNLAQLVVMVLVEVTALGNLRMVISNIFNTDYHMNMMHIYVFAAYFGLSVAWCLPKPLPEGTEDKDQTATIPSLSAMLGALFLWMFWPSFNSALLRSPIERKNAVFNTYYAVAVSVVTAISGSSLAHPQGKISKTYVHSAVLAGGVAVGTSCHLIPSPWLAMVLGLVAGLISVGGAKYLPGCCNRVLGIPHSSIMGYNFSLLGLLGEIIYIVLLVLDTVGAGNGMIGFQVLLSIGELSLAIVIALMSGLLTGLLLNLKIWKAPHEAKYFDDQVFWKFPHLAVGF
Description: After each round of panning single colonies were picked for analysis of their binding properties to red blood cells in agglutination assays. Briefly, single colonies were inoculated into 2×YT/100 μg/mL carbenicillin/1% glucose and shaken overnight at 37° C. The next day, DeepWell plates were inoculated using 900 μl 2×YT/100 μg/mL carbenicillin/0.1% glucose and 10 μl overnight culture. The plates were shaken for two hours at 37° C., before Fab induction was performed with addition of 300 μl 2×YT/100 μg/mL carbenicillin/0.25 mM IPTG per well. The plate was shaken overnight at 30° C. The following day, the bacteria were pelleted by centrifugation (3200×g, 4° C., 10 minutes), and re-suspended in 100 μl of 0.8 M NaCl, 0.2×PBS, 8 mM EDTA, and incubated for 15 minutes on ice in order to perform a periplasmic extraction of the Fab fragments. The plate was transferred to −20° C. and finally the suspension was thawed and centrifugation was performed for 10 minutes at 4° C. and 3200×g. The periplasmic extract was used in ELISA assays for analysis of Fab content and in agglutination assays to evaluate the binding potential of the individual Fab fragments.
The agglutination assay was performed as follows: RhD(−) and RhD(+) RBC were mixed in a 1:1 ratio, and washed 3 times in PBS. After the final wash, the cell mix was re-suspended in 1% BSA in PBS at a density of 10% cells, 50 μl was added to each well of a 96-plate. Periplasmic extracts were added to the wells. As a positive control Rhesogamma P immunoglobulin (Aventis) was used according to the manufacturer's instructions. The plates were incubated for one hour at room temperature with gentle shaking. The cells were washed three times with PBS, before the secondary antibody was added (goat anti-human Fab/FITC conjugate, Sigma F5512) in a 1:100 dilution. The plates were left for agglutination for one hour at room temperature without shaking. Fab fragments positive in the agglutination assay was determined by visual inspection, and recorded by taking a picture. Quantization of the binding activity of the Fab fragments was performed by FACS analysis of the agglutination samples.

Row | Binder | binding result
1 | B1 | binds
2 | B2 | binds
3 | B3 | binds
4 | B4 | binds
5 | B5 | binds
6 | B6 | binds
7 | B7 | binds
8 | B8 | binds
9 | B9 | binds
10 | B10 | binds
11 | B11 | binds
12 | B12 | binds
13 | B13 | binds
14 | B14 | binds
15 | B15 | binds
16 | B16 | binds
17 | B17 | binds
18 | B18 | binds
